From PMC2764547 (Structure (London, England : 1993), 2009) come the findings set out here.

The term Kd denotes the constant that tells how readily two partners part at equilibrium. Higher therefore signals a looser complex. The term EC50 denotes the concentration needed to bring the measured effect to its halfway point. A high value points to weaker potency. By stoichiometry N is commonly meant a count of units in the complex or per binding partner. One may read the Km as the concentration of substrate that gives half-maximal velocity.

“And” between values parts separate entries of the source, which are not always exact repeats. Equal entries are not always repeated. Where a SMILES comes first, the peptide text is derived from it. Where no end group is shown, it is not given here. fluorescein = fluorescein-β-alanine label at the N-terminus; βAla = NCCC(=O)O

The target in data set [1] is fluorescein-β-alanine-… OMP peptide. As to the kind of experiment: fluorescence polarisation.
The next data set deals with wild-type DegS (Escherichia coli, UniProt P0AEE3). The experiment in a line: biochemical. Further details: species or system E. coli.
Another data set concerns the target H198P DegS (Escherichia coli, UniProt P0AEE3, H198P). The experiment in a line: biochemical. Further details: species or system E. coli.
Data set [2] has as its target T1, H198P E. coli DegS (residues 27-355) (E. coli) (UniProt P0AEE3).
T1 sequence: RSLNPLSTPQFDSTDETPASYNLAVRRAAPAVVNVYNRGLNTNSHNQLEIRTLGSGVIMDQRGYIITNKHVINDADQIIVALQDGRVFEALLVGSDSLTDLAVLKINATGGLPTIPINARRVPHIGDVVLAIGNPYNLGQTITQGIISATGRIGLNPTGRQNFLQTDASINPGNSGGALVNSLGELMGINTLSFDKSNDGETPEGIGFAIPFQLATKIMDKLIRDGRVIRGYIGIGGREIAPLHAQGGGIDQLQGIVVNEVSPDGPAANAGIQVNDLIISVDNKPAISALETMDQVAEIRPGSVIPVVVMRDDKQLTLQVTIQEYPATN

The target in data set [3] is T2, H198P/D320A E. coli DegS (residues 27-355) (E. coli) (UniProt P0AEE3).
T2 sequence: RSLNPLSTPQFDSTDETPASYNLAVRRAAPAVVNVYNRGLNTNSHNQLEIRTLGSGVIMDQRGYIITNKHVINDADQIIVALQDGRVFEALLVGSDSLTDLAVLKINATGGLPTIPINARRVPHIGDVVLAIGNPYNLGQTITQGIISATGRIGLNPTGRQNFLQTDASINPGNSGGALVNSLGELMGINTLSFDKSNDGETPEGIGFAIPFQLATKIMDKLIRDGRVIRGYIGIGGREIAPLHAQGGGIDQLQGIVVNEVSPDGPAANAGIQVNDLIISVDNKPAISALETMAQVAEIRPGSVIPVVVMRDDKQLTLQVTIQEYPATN

Data set [4] concerns the target T3, H198P/K243D E. coli DegS (residues 27-355) (E. coli) (UniProt P0AEE3).
T3 sequence: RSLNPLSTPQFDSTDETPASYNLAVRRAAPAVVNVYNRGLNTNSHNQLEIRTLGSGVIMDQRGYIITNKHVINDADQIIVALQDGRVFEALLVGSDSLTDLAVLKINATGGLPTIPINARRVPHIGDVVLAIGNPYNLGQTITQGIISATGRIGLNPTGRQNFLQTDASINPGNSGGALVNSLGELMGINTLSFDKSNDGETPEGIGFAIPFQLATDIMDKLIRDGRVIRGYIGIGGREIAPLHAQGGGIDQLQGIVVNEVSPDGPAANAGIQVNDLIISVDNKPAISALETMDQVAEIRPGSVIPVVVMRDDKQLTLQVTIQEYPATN

The data set “crystal structure” concerns the molecule itself. As to the kind of experiment: crystal structure.
The subject of another data set is RseA. The experiment in a line: Steady-state RseA cleavage. The format is biochemical, E. coli. To be noted: OMP peptide: None, 23 ± 1 °C, average of two or more determinations; for Km: KM of RseA.
Data set [5] has as its target T4, wild-type E. coli DegS (residues 27-355) (E. coli, UniProt P0AEE3 27-355).
T4 sequence (looked up): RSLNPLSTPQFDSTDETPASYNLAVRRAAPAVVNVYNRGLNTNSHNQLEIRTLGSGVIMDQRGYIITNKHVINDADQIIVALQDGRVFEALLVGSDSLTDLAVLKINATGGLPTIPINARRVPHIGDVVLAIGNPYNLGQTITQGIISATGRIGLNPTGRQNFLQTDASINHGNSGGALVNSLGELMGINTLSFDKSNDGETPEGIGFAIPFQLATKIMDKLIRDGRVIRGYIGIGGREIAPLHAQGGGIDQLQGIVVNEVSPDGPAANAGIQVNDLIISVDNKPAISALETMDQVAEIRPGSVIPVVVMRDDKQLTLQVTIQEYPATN
As to the kind of experiment: fluorescence polarisation.

The target of data set [6] is T5, H198P E. coli DegS (residues 27-355) (E. coli, UniProt P0AEE3 27-355, H198P).
T5 sequence (looked up): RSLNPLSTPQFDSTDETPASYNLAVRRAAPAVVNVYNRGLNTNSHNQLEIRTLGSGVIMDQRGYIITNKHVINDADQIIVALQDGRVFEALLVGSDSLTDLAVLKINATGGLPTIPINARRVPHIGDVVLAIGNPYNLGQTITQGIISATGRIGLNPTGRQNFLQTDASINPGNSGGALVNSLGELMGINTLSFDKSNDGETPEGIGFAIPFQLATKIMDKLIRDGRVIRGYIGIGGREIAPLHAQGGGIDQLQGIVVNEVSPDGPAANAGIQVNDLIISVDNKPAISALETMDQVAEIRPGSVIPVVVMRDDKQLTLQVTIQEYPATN
As to the kind of experiment: fluorescence polarisation. Background: In fluorescence polarisation assays a small probe gives low polarisation when free and higher when bound to something large.

Data set [7] deals with T6, K243D E. coli DegS (residues 27-355) (E. coli, UniProt P0AEE3 27-355, K243D).
T6 sequence (looked up): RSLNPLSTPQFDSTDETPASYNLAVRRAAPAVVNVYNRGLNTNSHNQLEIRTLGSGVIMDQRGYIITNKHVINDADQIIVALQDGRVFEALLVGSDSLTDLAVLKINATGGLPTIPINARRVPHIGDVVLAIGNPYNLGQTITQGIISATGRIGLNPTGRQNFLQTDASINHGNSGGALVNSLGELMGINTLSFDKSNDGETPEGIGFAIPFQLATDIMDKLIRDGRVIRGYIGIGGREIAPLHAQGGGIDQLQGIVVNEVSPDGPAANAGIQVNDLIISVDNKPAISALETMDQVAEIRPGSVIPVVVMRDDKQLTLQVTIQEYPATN
The experiment in a line: fluorescence polarisation.

Data set [8] has as its target T7, H198P/K243D E. coli DegS (residues 27-355) (E. coli, UniProt P0AEE3 27-355, H198P | K243D).
T7 sequence (looked up): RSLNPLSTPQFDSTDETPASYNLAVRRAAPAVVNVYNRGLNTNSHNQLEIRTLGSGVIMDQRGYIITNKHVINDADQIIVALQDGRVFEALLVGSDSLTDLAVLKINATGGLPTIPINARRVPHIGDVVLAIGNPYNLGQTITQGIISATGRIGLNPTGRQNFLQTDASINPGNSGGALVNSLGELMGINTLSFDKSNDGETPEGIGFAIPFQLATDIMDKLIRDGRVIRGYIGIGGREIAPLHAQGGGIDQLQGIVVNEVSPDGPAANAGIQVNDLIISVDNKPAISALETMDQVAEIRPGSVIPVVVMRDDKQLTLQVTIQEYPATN
As to the kind of experiment: fluorescence polarisation.

Data set [9] addresses T8, D320A E. coli DegS (residues 27-355) (E. coli, UniProt P0AEE3 27-355, D320A).
T8 sequence (looked up): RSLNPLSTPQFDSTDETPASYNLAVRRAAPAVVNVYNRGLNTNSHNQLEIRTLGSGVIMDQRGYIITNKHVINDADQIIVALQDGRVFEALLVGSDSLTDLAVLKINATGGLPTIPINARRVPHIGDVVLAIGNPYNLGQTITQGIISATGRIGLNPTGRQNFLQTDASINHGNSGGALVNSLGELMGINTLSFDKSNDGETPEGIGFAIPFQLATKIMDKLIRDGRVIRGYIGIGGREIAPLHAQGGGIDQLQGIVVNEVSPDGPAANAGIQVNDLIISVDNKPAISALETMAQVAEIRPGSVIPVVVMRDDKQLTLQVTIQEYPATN
As to the kind of experiment: fluorescence polarisation.

In data set [10] the target is T9, H198P/D320A E. coli DegS (residues 27-355) (E. coli, UniProt P0AEE3 27-355, H198P | D320A).
T9 sequence (looked up): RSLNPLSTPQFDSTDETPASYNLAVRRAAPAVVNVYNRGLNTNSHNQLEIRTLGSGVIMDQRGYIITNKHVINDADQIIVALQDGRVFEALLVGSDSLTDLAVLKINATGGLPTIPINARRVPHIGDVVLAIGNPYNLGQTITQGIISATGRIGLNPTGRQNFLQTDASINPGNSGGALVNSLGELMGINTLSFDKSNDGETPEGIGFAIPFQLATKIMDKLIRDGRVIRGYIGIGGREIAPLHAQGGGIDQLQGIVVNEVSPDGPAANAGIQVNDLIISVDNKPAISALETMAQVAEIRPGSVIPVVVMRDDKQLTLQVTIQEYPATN
As to the kind of experiment: fluorescence polarisation.

Consider “PDZ domain of E. coli DegS (domain or fragment)”, for which, in data set [1], the Kd was found to be 0.6 µM.

For the molecule DNRDGNVYQF, the EC50 at wild-type DegS was found to be 50 ± 5 µM; on H198P DegS, 4.4 ± 0.6 µM.

For `NC(=O)CC[C@H](NC(=O)[C@@H](N)Cc1ccc(O)cc1)C(=O)N[C@@H](Cc1ccccc1)C(=O)O` [YQF] (H-Tyr-Gln-Phe-OH), the EC50 came out at 260 ± 10 µM at wild-type DegS and 29 ± 5 µM on H198P DegS.

B1: 35S-labeled variant of the periplasmic domain of E. coli RseA (residues 121-216) (domain or fragment)
chain: YNGQSETSQQPETPVFNTLPMMGKASPVSLGVPSEATANNGQQQQVQEQRRRINAMLQDYELQRRLHSEQLQFEQAQTQQAAVQVPGIQTLGTQSQ
modifications: 35S-labeled
B1: in [2], the KM of RseA cleavage, with saturating YQF peptide turned out to be 69 µM; the KM of RseA cleavage, with saturating YYF peptide came out at 64 µM; the KM of RseA cleavage, with saturating … peptide was 94 µM and 130 µM; the KM of RseA cleavage, without OMP peptide amounted to 560 µM. Further, in data set [3], the KM of RseA cleavage, without OMP peptide came out at 110 µM. The KM of RseA cleavage, without OMP peptide in data set [4] amounted to 70 µM.

B2: DFP-modified H198P/D320A E. coli DegS (residues 27-355) (enzyme, UniProt P0AEE3 27-355, looked up)
chain: RSLNPLSTPQFDSTDETPASYNLAVRRAAPAVVNVYNRGLNTNSHNQLEIRTLGSGVIMDQRGYIITNKHVINDADQIIVALQDGRVFEALLVGSDSLTDLAVLKINATGGLPTIPINARRVPHIGDVVLAIGNPYNLGQTITQGIISATGRIGLNPTGRQNFLQTDASINPGNSGGALVNSLGELMGINTLSFDKSNDGETPEGIGFAIPFQLATKIMDKLIRDGRVIRGYIGIGGREIAPLHAQGGGIDQLQGIVVNEVSPDGPAANAGIQVNDLIISVDNKPAISALETMAQVAEIRPGSVIPVVVMRDDKQLTLQVTIQEYPATN
modifications: Ser201 modified by diisopropylfluorophosphate (DFP); seen as monoisopropylphosphorylserine (Mis201) in the crystal structures
With B2, the “stoichiometry N” value in the data set “crystal structure” came to 3.

B3: H198P/D320A: DegS double mutant (protein)
chain: RSLNPLSTPQFDSTDETPASYNLAVRRAAPAVVNVYNRGLNTNSHNQLEIRTLGSGVIMDQRGYIITNKHVINDADQIIVALQDGRVFEALLVGSDSLTDLAVLKINATGGLPTIPINARRVPHIGDVVLAIGNPYNLGQTITQGIISATGRIGLNPTGRQNFLQTDASINPGNSGGALVNSLGELMGINTLSFDKSNDGETPEGIGFAIPFQLATKIMDKLIRDGRVIRGYIGIGGREIAPLHAQGGGIDQLQGIVVNEVSPDGPAANAGIQVNDLIISVDNKPAISALETMAQVAEIRPGSVIPVVVMRDDKQLTLQVTIQEYPATN
modifications: left off: His6, N-terminal, state not stated
In the case of B3, in the data set on RseA, the Km came to 110 ± 10 µM and the Vmax stood at 1.6 ± 0.2 s^-1 enz^-1.

B4: H198P/K243D: DegS double mutant (protein)
chain: RSLNPLSTPQFDSTDETPASYNLAVRRAAPAVVNVYNRGLNTNSHNQLEIRTLGSGVIMDQRGYIITNKHVINDADQIIVALQDGRVFEALLVGSDSLTDLAVLKINATGGLPTIPINARRVPHIGDVVLAIGNPYNLGQTITQGIISATGRIGLNPTGRQNFLQTDASINPGNSGGALVNSLGELMGINTLSFDKSNDGETPEGIGFAIPFQLATDIMDKLIRDGRVIRGYIGIGGREIAPLHAQGGGIDQLQGIVVNEVSPDGPAANAGIQVNDLIISVDNKPAISALETMDQVAEIRPGSVIPVVVMRDDKQLTLQVTIQEYPATN
modifications: left off: His6, N-terminal, state not stated
On to B4, for which, in the data set with RseA, the Km came to 70 ± 5 µM and the Vmax amounted to 1.2 ± 0.1 s^-1 enz^-1.

In the case of {fluorescein-βAla}-KKDNRDGNYYF [fluorescein-β-alanine-KKDNRDGNYYF OMP peptide], the Kd worked out at 4.6 µM in [5]; 1.9 µM in data set [6]; 3.1 µM in data set [7]; 0.68 µM in data set [8]; 1.1 µM in [9]; 0.45 µM in [10].
